# Target: T1, human FGFR2 protein (His-tag) residue 403-822 (human, UniProt P21802-3 403-822)
# T1 construct: fibroblast growth factor receptor 2 (FGFR2), human, residues 403-822 (cytoplasmic part with the kinase domain); docking used residues 461-763 of PDB 7OZY, another construct; also called FGFR2 kinase domain; FGFR2 protein kinase domain; source: bought: Thermo Fisher Scientific
# Assay: SPR; FGFR2 (10 µg/mL) coupled through NHS/EDAC to 11-mercaptoundecanoic acid on gold chips; peptides flowed at 50 nM, 100 nM, 1 µM, 50 µM and 100 µM in 1X PBS, 30 µL/min, 2000 s; KD by non-linear regression, mean of three runs
# Conditions: both partners purified
# T1 sequence (P21802 402-821): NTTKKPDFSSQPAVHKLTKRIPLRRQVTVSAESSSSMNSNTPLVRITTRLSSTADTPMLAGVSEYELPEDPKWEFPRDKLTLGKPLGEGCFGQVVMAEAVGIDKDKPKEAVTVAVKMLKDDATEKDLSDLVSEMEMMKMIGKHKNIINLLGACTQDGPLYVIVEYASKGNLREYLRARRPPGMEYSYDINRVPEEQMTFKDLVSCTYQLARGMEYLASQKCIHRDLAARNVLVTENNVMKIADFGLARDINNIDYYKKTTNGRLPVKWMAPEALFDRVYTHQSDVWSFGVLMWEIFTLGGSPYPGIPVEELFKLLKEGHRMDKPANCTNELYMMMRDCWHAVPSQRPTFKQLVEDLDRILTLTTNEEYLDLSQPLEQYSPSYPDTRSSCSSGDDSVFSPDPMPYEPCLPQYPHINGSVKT
row,Binder,Kd
1,"ACSAG (Unconjugated peptide (no DOX, no fluorescein) in the SPR and antibody-staining experiments; also called ACSAG peptide; source: synthetic peptide, custom-ordered from GenScript) [ACSAG (A-pep)]",14.1 µM
2,"ACSAGLPHVLTPEAGATGASCA (Newly designed fusion peptide of 22 residues; also called fusion trimer peptide; source: synthetic peptide, custom-ordered from GenScript) [ACSAGLPHVLTPEAGATGASCA (Trimer-pep)]",7.53 µM
